The DeepSol protein solubility set

Experiment: soluble on expression in E. coli; label from the status in PepcDB or PDB records

Sequence | soluble on expression in E. coli
MIPGEYIIKNEFITLNDGRRTLNIKVSNTGDRPVQVGSHYHFFEVNRYLEFDRKSAFGMRLDIPSGTAVRFEPGEEKTVQLVEIGGSREIYGLNDLTCGPLDREDLSNVFKKAKELGFKGVE | not soluble
VIEPARGLGDGNIERKIRGLLDSWMTWNHSFQGSCMFLDAWNDAADKNCPLQAALRKAIDTWLSYLEIQIAKGKENQEFISDLDTRQATFDLYGQYLSAHVFYSIKGEEESLRLFWQGIDNLLARWRG | not soluble
MGSDKIHHHHHHMISQFIDRKRELAILEREWKNTPSFVVIYGRRRVGKTRLLVEFSKGKKVFFYTFMEGTKESQVKSLAKELVDFFNDEIFLSFSDWYPLFKYLSGKLMEKTLFVFDEFTYAVKSDRSILSALQRVWDHELSYKPVMLVLSGSLMGIMEDNVLSHSSPLYGRRTAGFRLRSLGLFPSLRFFKSPIEGLKFYMLLGGIPAYLIIASRYETVGEFVEREFLTPEGYFYDEPYIVLSELKELKTYFSILSAMSSGRRRPSEIASEVGLEGRKIYPYLETLIRLGFVERELPIARKEKRGLYRISDPMLMSWFSLIYPNRTEIELGTITLERVEKILQRIFSFRFEDVSREFLVEMNKAGKLPFRFTKIGRWWYKGEEIDLVALNEDEEKALFIEVKWKDLKEREVKGILKDLEKKAGLVGLDGWDKNYGLIEKSIERKEKLREENYLVWDLKDFDALKILSQ | not soluble
MGHHHHHHSHMDCCASRGCSVPTGPATTICSSDKSCRCGVCLPSTCPHTVWLLEPTCCDNCPPPCHIPQPCVPTCFLLNSCQPTPGLETLNLTTFTQPCCEPCLPRGC | not soluble
MGSDKIHHHHHHMRRGGTAFSSKCKICGKAAPFSLPVCPECSKKDAALEIATSLHPPLYEKRVEGCNLCSNKCSGIALCGKPEYGKLTYYEDPLPTNCCNAWFCNGSKLTGTNLAVFYYGCNFDCLYCQNWTHKYFEDVRTVSVDELLRAAKNFRVRCVCHFGGSPEPQLPFALKFSRKALEFKEDLMICWEWNGAGNTSLALKAAELSSRSGGTVKFDLKAWNPNLHVLLTGRDNERVKDNFERIYDKHGEVLSATTLLVPYYVDEEEVEGIARFISSFSTEIPYSLLVFHPDYRMSDFPVTPVQQVKRCYKAAKKHLKNVNIGNLHLLGL | not soluble
MGSDKIHHHHHHMDIPWLVERDDRNERIVLSIKTNAKEALENAYRKKSRVTGKMIAYVHDSCANFFCEEGWLQEGAVSTYFHNGQANVFSFFLKEDRQNSDHERLHREVLSYVQKIERTLELSSHAVQRLNEADTDSLAQLYRHVFERYPTDVFSAQYLQQTMKEGAKFVGVKEGTDIICAASAVPNGFGGWEITDCATKKEARGNGYLSSVLCELEQWLWEEGEENVYSITRSHSFGMNVTIKKRGFSYEGTMVNNCIIGTGFEDMNIWTKRLTATNIC | not soluble
MKKLLLTLVSSSLLVACSQRTESMEDKSIAPCGDKPNCISTLDEREEFTVKPFILTSSANMKAISHIASQLKGAKLVDINNDYARIECTSSVFRFVDDLELRIYGNTLIVRSESRTGYSDFGVNRKRVEKLRTLLEEKGLISQLEHHHHHH | not soluble
MEKGAPQNNADEEAKVEVPPPAPKTTSAERAPEKVSAEKAQEQEKSAMGSVPIPPEREKHIKERKTGYEYSIVTINYKPGTKFGLGIKNVFNKSIYVIKVEENSLVSGIFNVADRIIDVDGEPVYDNAKCKGLLVKALKEKKVCTLLIERGITESALKDATNEMNEEHTQSVMAPPDVKSIMRKLEAHNFLRKSPSCESAAAPNPVPSAMTKNKEGKGERKACILEDGHKSVMIRMDNEENRNKLKKVEPKEPPRRLDPKTPPKPAAPEPKPEGK | not soluble
MAHHHHHHMEALFYDHAVASTATRQADLRQALQAFLADAASRSAVQLIALFVHIPVPSTVSVASHTASGSRTSSRTSSSREGGSAAARHAATGKAASAASPSPPAASRRRCNAAKLAWCAWEADRRLRQAAEDASEMNKWLAHDDLSASRKAGAGIARSYCRGAFVVAVAFLAPCTRDDIVVYESWQRCTEMCAEASAADVARGSASRTTRMLSPLRHARLIALSLGAPSLLLSWAERPTRCHLDSLLLPHQSLLVDLSWWVATASGSAGTVSDAAAGSRVSNSVLRDIFISDVQRSLKLPKGDSRCAVWISYATLLESLHPQVMGRIDGADGDGVSVDMRVAGSASRRKRGRNTLCGEFSGVDEQAFMMTYARIRHLLSSLNASQAGAVGHTRFLRVVLSYGGPSSALRRQLVHTCSRTEHGVTAVDAALLRTRSLVDVHALFGVLAGQDTVNVYSEAAAFVRTARRRASAGEAAQQRHQRIAVQSARVEVTSSPSSGPPGTEHEGVDSGAGNLCHNAFVERGARALARRLRLWERKRLGKRGKRGVHVRPRDKAARRPMKRGHAGTNDADSERVLVHAVERASRAAATPKTGNKRRAEPLASVDGRPSASATRALLPPQKQRRTDAVAVSPTLATDTALRWSEDVAGSG | not soluble
MVSHHNLTTGATLINEQWLLTTAKNLFLNHSENATAKDIAPTLTLYVGKKQLVEIEKVVLHPNYSQVDIGLIKLKQKVSVNERVMPICLPSKDYAEVGRVGYVSGWGRNANFKFTDHLKYVMLPVADQDQCIRHYEGSTVPEKKTPKSPVGVQPILNEHTFCAGMSKYQEDTCYGDAGSAFAVHDLEEDTWYATGILSFDKSCAVAEYGVYVKVTSIQDWVQKTIAEN | not soluble
MSLSLLLQQHLSQPWRFLDHTSFGPTFQALQSFAYDDTLCTSIGKSQSPPTLRAWVHHNTVVLGIQDSRLPQIKAGIEALKGFQHDVIVRNSGGLAVVLDSGILNLSLVLKEEKGFSIDDGYELMYELICSMFQDHREQIEAREIVGSYCPGSYDLSIDGKKFAGISQRRIRGGVAVQIYLCVSGSGAERAKMIRTFYDKAVAGQPTKFVYPRIKPETMASLSELLGQPHNVSDVLLKALMTLQQHGASLLTESLSADEWLLYEQHFARISERNEKLLAEEGHHHHHH | soluble
SNAMPSIRYPSTEFPALTGFTVPIPETWQPDPTMGTQFAARPHTPPQGFTPNIIGTVRRAATGALHNQRTELDQRATQLPDYAERGRTETTVDGFPAYHIEYAYRHHGTITIAQMITLVEVSHPHAVDIIQLTATCAGDQTADYWDTFRLMHADLTVQPHG | soluble
MGSDKIHHHHHHEKKDKKENDTSAAQATETDCTAAELVTTEPEAEITISEMIDQRIKEEGKIMMYRMHFGPSKTPLEITEDLNVNIISYDGKELIDYGNSSNRRGETRLGDIIHNKVDYSTYDIGAYGGSWKRHRRVSGGDEKYVEEEGYVQREITTDDSGNNTQMETLYLYSKGTLYTREEGSEVWNQTEKNDNLPVVAFGTFERIKLDGKTYMTFCVRDDLNLIKYIIIPDNKFTENKTVVYDTPGTEGTTVNTVDYLKEYQAVPKEELEQMIVFPGSKKAESSQAAD | not soluble
MGHHHHHHSHMTRVKLQDGVHIIKETKEEVTPEQLKLMRTQDVKYIEMKRVAEAKKIERLKSELHLLDFQGKQQNKHVFFFDTKKEVEQFDVATHLQTAPELVDRVFNRPRIETLQKEKVKGVTNQTGLKRIAKERQKQYNCLTQRIEREKKLFVIAQKIQTRKDLMDKTQKVKVKKETVNFPAIYKFQSRRKR | not soluble
MAAQESLHVKTPLRDSMALSKVAGTSVFLKMDSSQPSGSFKIRGIGHLCKMKAKQGCKHFVCSSAGNAGMATAYAARRLGLPATIVVPSTTPALTIERLKNEGATVEVVGEMLDEAIQLAKALEKNNPGWVYISPFDDPLIWEGHTSLVKELKETLSAKPGAIVLSVGGGGLLCGVVQGLREVGWEDVPIIAMETFGAHSFHAAVKEGKLVTLPKITSVAKALGVNTVGAQTLKLFYEHPIFSEVISDQEAVTAIEKFVDDEKILVEPACGAALAAVYSGVVCRLQAEARLQTPLASLVVIVCGGSNISLAQLQALKAQLGLNELLK | soluble
MKPMSDYDIPTTENLYFQGAMVTTPGKPNDPDNPNNNYIKPTKVNKNKEGLNIDGKEVLAGSTNYYELTWDLDQYKGDKSSKEAIQNGFYYVDDYPEEALDVRPDLVKVADEKGNQVSGVSVQQYDSLEAAPKKVQDLLKKANITVKGAFQLFSADNPEEFYKQYVATGTSLVITDPMTVKSEFGKTGGKYENKAYQIDFGNGYATEVVVNNVPKITPKKDVTVSLDPTSENLDGQTVQLYQTFNYRLIGGLIPQNHSEELEDYSFVDDYDQAGDQYTGNYKTFSSLNLTMKDGSVIKAGTDLTSQTTAETDATNGIVTVRFKEDFLQKISLDSPFQAETYLQMRRIAIGTFENTYVNTVNKVAYASNTVRTTT | soluble
MAHHHHHHMASSEEEKRVAYCKQHNVHHLFELLATKLLLDRPENPFEYLREMLSKVEESEKSKQSYDPTVLSPPVNGAVEPLKKITLGTFGLDNAGKTTLISALGGQIEVNTTPTVGFTPTKFQTEKYDICIFDLGGAANFRGIWVHYFHDCHGLMFVIDSAADDAVVRESLNVLRDLSQHRYIKGKPILVLANKKDLENARGTKVIPNGFLDKLFGRNTAYRVVASCGIEEDPALEEGVEWLLSVVDKLHDTLEARVNCDTEEVKMEAKRKAAERLAALKTAS | not soluble
EVQLVESGGGLVQPGGSLRLSCAASGFTFTSTGISWVRQAPGKGLEWVGRIYPTNGSTNYADSVKGRFTISADTSKNTAYLQMNSLRAEDTAVYYCARTYGIYDLYVDYTEYVMDYWGQGTLVTVSSASTKGPSVFPLAPSSKSTSGGTAALGCLVKDYFPEPVTVSWNSGALTSGVHTFPAVLQSSGLYSLSSVVTVPSSSLGTQTYICNVNHKPSNTKVDKKVEPKSCDKTHT | soluble
MESSKKTSRSRSTTQEAVRDIKKYIRDNRLRTGDLLPSEAFLCEELGCSRSAIREAIRALVTLDIVEVRHGYGTFVSRMSLEPLINGMVFRTVLDNDTSVENLFYVVDTREILDLSLGEELIEVFTDDDRELLLDLVDKMREHNDQGESFVVEDQKFHRALLARTKNPLIRELNDAFWQIQTEAQPMLNLAMPADIDETIKAHSDIVEALSSGNIDDYRSAVLAHYAPFRRMISNMLDAH | not soluble
AHHHHHHGSINNAQPPIYEEGLEELMQELKGKYHATNDYRWAILNSDITFITVGTPSKPDGSIDLTHVKQAAKSIGKALRDKEDYHVVVVKSTVLPGTTEEVVKPILEKHSGKKAFKDFGLAMNPEFLREGVALKDFLNPDRIVLGVQDEKTKKILEELYEPINAPKLIVDIKTAEMIKYASNAFLATKISFANEIGNICKKLGIDSWKVFEGVGLDHRISPHFFKTGIGFGGSCFPKDVKALIKKAEEIGENPLILKAVIEVNERQPLKMIELLKKHIPELKGRKIGVLGLAFKPNTDDVRETRAYIIIKKLLEEGASVIAYDPKAMENFKRFYPDVSGGIEYATSPEDVLKSTEIILIVTEWPDFEELDYSGKIVIDGRRIKAAERTARIYEGVCW | soluble
MAGQTLKGPWNNLERLAENTGEFQEVVRAFYDTLDAARSSIRVVRVERVSHPLLQQQYELYRERLLQRCERRPVEQVLYHGTTAPAVPDICAHGFNRSFCGRNATVYGKGVYFAKRASLSVQDRYSPPNADGHKAVFVARVLTGDYGQGRRGLRAPPLRGPGHVLLRYDSAMDCICQPSIFVIFHDTQALPTHLITCEHVPRASPDDPSGAHHHHHH | soluble
MSERMWGFGLTEEEASRSIREKMSINDSPTHGHDIHVTRDLVKHHLSKSDMLTDPSQEVLEERTRIQFIRWSHTRIFQVPSEVMDDVMQERIDQVRRSVSHLMCDSYNDPSFRTSCSEC | not soluble
AIATDSASLQFVSPYAFEAMQKVDVARLAALSDPELRLLLPCLVRMALCAPADQSNAWAQDKKLILRLLSGVEAVNSIVALLSVDFHALEQDARKEQQLRHKAGGSNGESILVSQLQHGLTLEFEHSDPLRRLRLALSELLAIMNKVQCPFIYSCIGMLIRVIFPTGAH | soluble
